Molecular target: T1, LDL (purified human low-density lipoprotein, Cappel) (human, UniProt P04114 28-4563)
T1 construct: This is a lipoprotein particle, not a single protein; also called solid phase LDL
Test: ELISA: biotinylated envelope protein on coated LDL, streptavidin-peroxidase

B1: E2s (recombinant truncated HCV envelope protein E2, aa 384-673, genotype 1b) (other)
chain: HTRVSGGAAASNTRGLVSLFSPGSAQKIQLVNTNGSWHINRTALNCNDSLQTGFFAALFYKHKFNSSGCPERLASCRSIDKFAQGWGPLTYTEPNSSDQRPYCWHYAPRPCGIVPASQVCGPVYCFTPSPVVVGTTDRFGVPTYNWGANDSDVLILNNTRPPRGNWFGCTWMNGTGFTKTCGGPPCNIGGAGNNTLTCPTDCFRKHPEATYARCGSGPWLTPRCMVHYPYRLWHYPCTVNFTIFKVRMYVGGVEHRFGAACNWTRGERCDLEDRDRSELSPLLLSTTEWQ
modifications: biotinylated (sites not given)
notes: also called biotinylated E2
- binding result: no binding

Source: US6670114 (N V INNOGENETICS, dated 2003)
